This is an account of results in patent publication US20250250357A1 (NANJING ZAIMING PHARMACEUTICAL, published 2025).

The target in assay [1] is T1, human MSLN-R3 on HEK293T-hMSLN-R3 recombinant cells (human, UniProt Q13421 487-606).
T1 construct: the C-terminal limit is uncertain; also called human MSLN-R3 membrane protein
Description: FACS, HEK293T-hMSLN-R3 cells.

Assay [2] deals with T2, monkey MSLN on HEK293T-monkey MSLN recombinant cells (monkey).
T2 construct: Full-length precursor as transfected; processing on the cell is not described; also called HEK293-monkey MSLN
T2 chain: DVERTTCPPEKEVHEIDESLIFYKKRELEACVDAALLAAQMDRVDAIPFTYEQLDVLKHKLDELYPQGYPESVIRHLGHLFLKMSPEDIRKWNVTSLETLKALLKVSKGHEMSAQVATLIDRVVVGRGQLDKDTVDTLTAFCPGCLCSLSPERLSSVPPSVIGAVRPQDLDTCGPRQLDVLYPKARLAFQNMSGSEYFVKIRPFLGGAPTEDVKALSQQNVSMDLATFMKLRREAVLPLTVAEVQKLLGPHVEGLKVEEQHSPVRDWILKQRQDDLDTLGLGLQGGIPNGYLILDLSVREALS
Put plainly: FACS, HEK293T-monkey MSLN cells.

Assay [3] has as its target T3, human MSLN-hFc recombinant protein (human, UniProt Q13421 296-580).
T3 construct: Captured by an anti-human IgG antibody on the chip; also called human MSLN protein; Acro MSN-H5253
Description: SPR (Biacore 8K), MSLN-hFc captured, antibody injected.

T3 sequence (Q13421 other isoform, or with tags, fused parts or gaps): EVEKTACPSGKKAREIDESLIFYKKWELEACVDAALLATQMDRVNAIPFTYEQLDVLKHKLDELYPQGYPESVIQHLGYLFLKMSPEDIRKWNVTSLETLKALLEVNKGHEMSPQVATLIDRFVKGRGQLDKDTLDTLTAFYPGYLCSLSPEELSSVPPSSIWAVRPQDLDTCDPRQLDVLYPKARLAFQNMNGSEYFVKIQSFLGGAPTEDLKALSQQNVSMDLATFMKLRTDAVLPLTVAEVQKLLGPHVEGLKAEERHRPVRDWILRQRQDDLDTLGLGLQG
T1 sequence (Q13421 495-614): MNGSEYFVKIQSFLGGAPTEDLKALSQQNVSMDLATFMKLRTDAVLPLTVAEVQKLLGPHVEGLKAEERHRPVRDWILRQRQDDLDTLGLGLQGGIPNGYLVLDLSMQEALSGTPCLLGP

B1: F3.80.22-H17 (scFv, not shown: small tags and cut ends)
scFv: EVQLVQSGAEVKKPGATVKISCKVSGYTFTDYEIHWVQQAPGKGLEWMGAFDPEIGGSAYNQKFKDRVTITADKSTDTAYMELSSLRSEDTAVYYCTDYYGSSSGYFDVWGQGTTVTVSSGGGGSGGGGSGGGGSDIVMTQTPLSLPVTPGEPASISCRSSQSLEHNDGNTYLHWFLQKPGQSPQLLIYKVSNRFSGVPDRFSGSGSGTDFTLKISRVEAEDVGVYYCSQSTHVPFTFGQGTKLEIK
notes: also called S009-F3.80.22 humanized antibody VH1 + VL1a
With B1, in assay [1], the EC50 is 4.41 nM and the Maximum_MFI was 1790 MFI. Further, in assay [2], the Maximum_MFI worked out at 356 MFI and the binding result is “no binding”.

B2: F3.80.22-H1 (scFv, not shown: small tags and cut ends)
scFv: DIVMTQTPLSLPVTPGEPASISCRSSQSLEHNNGNTYLHWFLQKPGQSPQLLIYKVSNRFSGVPDRFSGSGSGTDFTLKISRVEAEDVGVYYCSQSTHVPFTFGQGTKLEIKGGGGSGGGGSGGGGSEVQLVQSGAEVKKPGATVKISCKVSGYTFTDYEIHWVQQAPGKGLEWMGAFDPEIGGSAYNQKFKDRVTITADKSTDTAYMELSSLRSEDTAVYYCTDYYGSSSGYFDVWGQGTTVTVSS
notes: also called S009-F3.80.22 humanized antibody VL1 + VH1
Turning to B2, in assay [1], the EC50 came out at 2.14 nM and the Maximum_MFI amounted to 1700 MFI. In assay [2], the Maximum_MFI is 278 MFI and the binding result is reported as “no binding”.

B3: F3.80.22-H5 (scFv, not shown: small tags and cut ends)
scFv: DIVMTQTPLSLPVTPGEPASISCRSSQSLEHNDGNTYLHWFLQKPGQSPQLLIYKVSNRFSGVPDRFSGSGSGTDFTLKISRVEAEDVGVYYCSQSTHVPFTFGQGTKLEIKGGGGSGGGGSGGGGSEVQLVQSGAEVKKPGATVKISCKVSGYTFTDYEIHWVQQAPGKGLEWMGAFDPEIGGSAYNQKFKDRVTITADKSTDTAYMELSSLRSEDTAVYYCTDYYGSSSGYFDVWGQGTTVTVSS
notes: also called S009-F3.80.22 humanized antibody VL1a + VH1
B3: in assay [1], the half-maximal effective concentration (EC50) came to 5.29 nM and the Maximum_MFI amounted to 1370 MFI. In assay [2], the Maximum_MFI came out at 302 MFI and the binding result is given as “no binding”. In assay [3], the dissociation constant (Kd) was 159 nM, the koff was found to be 0.000565 s⁻¹ and the kon worked out at 3560 M⁻¹ s⁻¹.

B4: F3.80.22-H3 (scFv, not shown: small tags and cut ends)
scFv: DIVMTQTPLSLPVTPGEPASISCRSSQSLEHNNGNTYLHWFLQKPGQSPQLLIYKVSNRFSGVPDRFSGSGSGTDFTLKISRVEAEDVGVYYCSQSTHVPFTFGQGTKLEIKGGGGSGGGGSGGGGSEVQLVQSGAEVKKPGATVKISCKASGYTFTDYEIHWVQQAPGKGLEWMGAFDPEIGGSAYNQKFKDRVTITADKSTSTAYMELSSLRSEDTAVYYCTDYYGSSSGYFDVWGTGTTVTVSS
notes: also called S009-F3.80.22 humanized antibody VL1 + VH3
In the case of B4, in assay [1], the EC50 turned out to be 4.41 nM and the Maximum_MFI amounted to 1750 MFI. Besides, in assay [2], the Maximum_MFI turned out to be 330 MFI and the binding result is recorded as “no binding”.

B5: F3.80.22-H6 (scFv, not shown: small tags and cut ends)
scFv: DIVMTQTPLSLPVTPGEPASISCRSSQSLEHNDGNTYLHWFLQKPGQSPQLLIYKVSNRFSGVPDRFSGSGSGTDFTLKISRVEAEDVGVYYCSQSTHVPFTFGQGTKLEIKGGGGSGGGGSGGGGSEVQLVQSGAEVKKPGATVKISCKASGYTFTDYEIHWVQQAPGKGLEWMGAFDPEIGGSAYNQKFKDRVTITADKSTSTAYMELSSLRSEDTAVYYCTDYYGSSSGYFDVWGQGTTVTVSS
notes: also called S009-F3.80.22 humanized antibody VL1a + VH2
As to B5, in assay [1], the concentration giving a half-maximal response (EC50) was 8.39 nM and the Maximum_MFI was found to be 1440 MFI. Besides, in assay [2], the Maximum_MFI stood at 338 MFI and the binding result is “no binding”.

B6: F3.80.22-H4 (scFv, not shown: small tags and cut ends)
scFv: DIVMTQTPLSLPVTPGEPASISCRSSQSLEHNNGNTYLHWFLQKPGQSPQLLIYKVSNRFSGVPDRFSGSGSGTDFTLKISRVEAEDVGVYYCSQSTHVPFTFGQGTKLEIKGGGGSGGGGSGGGGSEVQLVQSGAEVKKPGATVKISCKASGYTFTDYEIHWVQQAPGKGLEWMGAFDPEIGGSAYNQKFKDRVTITADKSSSTAYMELSSLRSEDTAVYYCTDYYGSSSGYFDVWGTGTTVTVSS
notes: also called S009-F3.80.22 humanized antibody VL1 + VH4
In the case of B6, in assay [1], the Maximum_MFI turned out to be 1410 MFI. In assay [2], the Maximum_MFI was found to be 357 MFI and the binding result is recorded as “no binding”.

B7: F3.80.22-H10 (scFv, not shown: small tags and cut ends)
scFv: DIVMTQTPLSLPVTPGEPASISCRSSQSLEHNNGNTYLHWFLHKPGQSPQLLIYKVSNRFSGVPDRFSGSGSGTDFTLKISRVEAEDVGVYYCSQSTHVPFTFGQGTKLEIKGGGGSGGGGSGGGGSEVQLVQSGAEVKKPGATVKISCKASGYTFTDYEIHWVQQAPGKGLEWMGAFDPEIGGSAYNQKFKDRVTITADKSTSTAYMELSSLRSEDTAVYYCTDYYGSSSGYFDVWGQGTTVTVSS
notes: also called S009-F3.80.22 humanized antibody VL2 + VH2
For the molecule B7, in assay [1], the EC50 turned out to be 1.99 nM and the Maximum_MFI was found to be 1800 MFI. Further, in assay [2], the Maximum_MFI turned out to be 381 MFI and the binding result was “no binding”. Also, in assay [3], the dissociation constant (Kd) stood at 20.9 nM, the dissociation rate constant (koff) amounted to 0.000177 s⁻¹ and the association rate constant (kon) turned out to be 8470 M⁻¹ s⁻¹.

B8: F3.80.22-H7 (scFv, not shown: small tags and cut ends)
scFv: DIVMTQTPLSLPVTPGEPASISCRSSQSLEHNDGNTYLHWFLQKPGQSPQLLIYKVSNRFSGVPDRFSGSGSGTDFTLKISRVEAEDVGVYYCSQSTHVPFTFGQGTKLEIKGGGGSGGGGSGGGGSEVQLVQSGAEVKKPGATVKISCKASGYTFTDYEIHWVQQAPGKGLEWMGAFDPEIGGSAYNQKFKDRVTITADKSTSTAYMELSSLRSEDTAVYYCTDYYGSSSGYFDVWGTGTTVTVSS
notes: also called S009-F3.80.22 humanized antibody VL1a + VH3
Turning to B8, in assay [1], the concentration giving a half-maximal response (EC50) was 3.91 nM and the Maximum_MFI came out at 1530 MFI. Also, in assay [2], the Maximum_MFI stood at 329 MFI and the binding result is reported as “no binding”.

B9: F3.80.22-H8 (scFv, not shown: small tags and cut ends)
scFv: DIVMTQTPLSLPVTPGEPASISCRSSQSLEHNDGNTYLHWFLQKPGQSPQLLIYKVSNRFSGVPDRFSGSGSGTDFTLKISRVEAEDVGVYYCSQSTHVPFTFGQGTKLEIKGGGGSGGGGSGGGGSEVQLVQSGAEVKKPGATVKISCKASGYTFTDYEIHWVQQAPGKGLEWMGAFDPEIGGSAYNQKFKDRVTITADKSSSTAYMELSSLRSEDTAVYYCTDYYGSSSGYFDVWGTGTTVTVSS
notes: also called S009-F3.80.22 humanized antibody VL1a + VH4
In the case of B9, in assay [1], the EC50 is 10.2 nM and the Maximum_MFI turned out to be 1400 MFI. In addition, in assay [2], the Maximum_MFI was 317 MFI and the binding result is “no binding”.
